What was measured:
M15 (influenza A virus) = assay: ELISA on peptide, Ab 10 µg/ml
M16 (influenza A virus) = assay: ELISA on peptide, Ab 10 µg/ml
[1] = target: M2 peptide (influenza A virus, A/Hong Kong/1/68 (H3N2)); assay: ELISA on peptide, Ab 10 µg/ml
NM15 (influenza A virus) = assay: ELISA on peptide, Ab 10 µg/ml
NM16 (influenza A virus) = assay: ELISA on peptide, Ab 10 µg/ml
NM17 (influenza A virus) = assay: ELISA on peptide, Ab 10 µg/ml
[2] = target: M2-BSA conjugate (influenza A virus, A/Hong Kong/1/68 (H3N2)); assay: peptide-BSA ELISA (++ EC50<10^-9M; + 10^-9M<EC50<10^-8M)
[3] = target: M2FG peptide conjugated with BSA (influenza A virus, A/X-31 (H3N2)); assay: as above; settings: remark: other sources report otherwise
[4] = target: M2G peptide conjugated with BSA (influenza A virus, A/Puerto Rico/8/34 (H1N1)); assay: as above

B1: C40G1 (antibody, V domains shown)
VH: QLQLQESGPGLVKPSETLSLTCTVSGGSISSSFYYCGWIRQPPGKGLEWIGSIYYRGSTYYNPSLKSRVTISVDTSKNQFSLKLSSVTAADTAVYYCARRVTMVRGVKGDYFDYWGQGTLVTVSS
VL: DIQMTQSPSSLSASVGDRVTITCRASQGISSWLAWYQQKPEKVPKSLIYAASSLQSGVPSRFSGSGSGTDFTLTISSLQPEDFATYYCQQYNYYPLTFGGGTKVEIKR
ELISA(OD450) (M15 (influenza A virus)): 2.73 OD450 | ELISA(OD450) (M16 (influenza A virus)): 2.64 OD450 | ELISA(OD450) [1]: 2.56 OD450 | ELISA(OD450) (NM15 (influenza A virus)): 2.51 OD450 | ELISA(OD450) (NM16 (influenza A virus)): 2.37 OD450 | ELISA(OD450) (NM17 (influenza A virus)): 2.41 OD450 | EC50 [2]: < 1 nM | EC50 [3]: < 1 nM | EC50 [4]: < 1 nM
